From patent publication US20230295226A1 (FLORIDA ATLANTIC UNIVERSITY BOARD OF TRUSTEES, published 2023)
Bridges are numbered along the chain shown (N, C = ends). Where no end group is shown, it is not given here. [ ]: non-standard residue; d: D form.

T1: asialofetuin (UniProt P12763 19-359, limits assumed, glycoprotein; desialylated glycans, described as L-fucose bearing)
T1 construct: also called L-fucose bearing asialofetuin; model glycoprotein
T1 sequence (looked up): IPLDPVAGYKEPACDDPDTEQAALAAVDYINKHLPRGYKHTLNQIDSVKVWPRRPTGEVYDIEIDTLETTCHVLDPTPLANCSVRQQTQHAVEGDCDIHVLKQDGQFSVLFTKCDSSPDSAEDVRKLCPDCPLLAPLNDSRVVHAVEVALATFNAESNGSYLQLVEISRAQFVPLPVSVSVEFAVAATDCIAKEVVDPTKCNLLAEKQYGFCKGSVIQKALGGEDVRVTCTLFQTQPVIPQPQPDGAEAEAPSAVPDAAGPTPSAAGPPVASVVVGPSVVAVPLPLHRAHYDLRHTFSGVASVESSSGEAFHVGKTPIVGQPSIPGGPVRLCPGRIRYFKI

B1: Odorranalectin (OL) (peptide)
peptide: YASPKCFRYPNGVLACT
modifications: disulfide 6-16
notes: Synthetic copy of the natural product; on-resin disulfide formation by I2 oxidation; also called unmodified OL; OL natural product

Experiments:
asialofetuin [1] = biological target: T1, asialofetuin; assay: ITC
asialofetuin [2] = biological target: T1, asialofetuin; assay: ITC, as cited in the text from Table 1; conflicts with Table 1, which prints 6.4 × 10^4 nM for OL and 4.2 × 10^4 nM for DADLE-OL
[3] = biological target: T2, delta opioid receptor (DOR); assay: protein binding radioassay
T2 construct: the library screen elsewhere used human clones in CHO cells

mu opioid receptor (MOR) = biological target: T3, mu opioid receptor (MOR); assay: protein binding radioassay
T3 construct: see m11 for the human receptor of the library screen

[4] = biological target: T4, kappa opioid receptor (KOR); assay: protein binding radioassay
T4 construct: see m12 for the human receptor of the library screen

Binder	Kd (asialofetuin [1])	Kd (asialofetuin [2])	Kd [3]	Kd (mu opioid receptor (MOR))	Kd [4]
RVFSLCNATYPYKGACP (disulfide 6-16) [Control peptide (scrambled OL sequence)]	760 µM	–	–	–	–
B1	64 µM	42 µM	–	–	–
Y[dA]GF[dL]KCFRYPNGVLACT (disulfide 7-17) [DADLE-OL II]	33 µM	–	0.275 µM	0.123 µM	1.08 µM
YASPKCFRY[dA]GF[dL]LACT (disulfide 6-16) [DADLE-OL]	42 µM	–	0.064 µM	3.54 µM	–
